Data from patent US20210403593A1 (TIZONA THERAPEUTICS, published 2021).

T1: Chimera #9 (Homo sapiens (Human), UniProt P49961 1-510)
T1 construct: Expressed on CHO cells
T1 chain: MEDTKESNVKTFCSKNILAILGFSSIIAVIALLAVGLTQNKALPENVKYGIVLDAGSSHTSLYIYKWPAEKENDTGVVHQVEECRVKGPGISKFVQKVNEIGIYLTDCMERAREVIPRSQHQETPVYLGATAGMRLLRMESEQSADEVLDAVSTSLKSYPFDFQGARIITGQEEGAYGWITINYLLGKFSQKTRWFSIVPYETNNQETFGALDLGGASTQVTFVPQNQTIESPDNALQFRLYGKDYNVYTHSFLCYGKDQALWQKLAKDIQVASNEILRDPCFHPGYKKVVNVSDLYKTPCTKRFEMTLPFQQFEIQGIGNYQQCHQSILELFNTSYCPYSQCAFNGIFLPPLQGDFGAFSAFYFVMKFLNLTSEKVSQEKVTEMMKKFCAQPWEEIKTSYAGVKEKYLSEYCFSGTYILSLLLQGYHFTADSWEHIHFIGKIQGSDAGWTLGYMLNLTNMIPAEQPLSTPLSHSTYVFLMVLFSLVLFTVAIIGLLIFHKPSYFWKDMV

T2: Chimera #10 (Homo sapiens (Human), UniProt P49961 1-510)
T2 construct: Expressed on CHO cells
T2 chain: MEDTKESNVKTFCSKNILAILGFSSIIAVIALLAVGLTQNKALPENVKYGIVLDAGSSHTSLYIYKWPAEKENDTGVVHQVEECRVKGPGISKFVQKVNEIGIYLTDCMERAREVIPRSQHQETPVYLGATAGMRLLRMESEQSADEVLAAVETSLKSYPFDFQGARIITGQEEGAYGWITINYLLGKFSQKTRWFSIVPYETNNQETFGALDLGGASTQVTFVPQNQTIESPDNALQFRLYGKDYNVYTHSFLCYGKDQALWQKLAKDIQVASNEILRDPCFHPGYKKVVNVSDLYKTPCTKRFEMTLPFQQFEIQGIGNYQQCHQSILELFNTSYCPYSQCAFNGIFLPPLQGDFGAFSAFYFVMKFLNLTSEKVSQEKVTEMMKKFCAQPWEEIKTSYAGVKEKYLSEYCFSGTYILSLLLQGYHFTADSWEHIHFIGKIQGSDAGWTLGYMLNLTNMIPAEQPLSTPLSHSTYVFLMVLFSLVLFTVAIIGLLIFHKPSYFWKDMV

T3: Chimera #4 (Homo sapiens (Human), UniProt P49961 1-510)
T3 construct: Expressed on CHO cells
T3 chain: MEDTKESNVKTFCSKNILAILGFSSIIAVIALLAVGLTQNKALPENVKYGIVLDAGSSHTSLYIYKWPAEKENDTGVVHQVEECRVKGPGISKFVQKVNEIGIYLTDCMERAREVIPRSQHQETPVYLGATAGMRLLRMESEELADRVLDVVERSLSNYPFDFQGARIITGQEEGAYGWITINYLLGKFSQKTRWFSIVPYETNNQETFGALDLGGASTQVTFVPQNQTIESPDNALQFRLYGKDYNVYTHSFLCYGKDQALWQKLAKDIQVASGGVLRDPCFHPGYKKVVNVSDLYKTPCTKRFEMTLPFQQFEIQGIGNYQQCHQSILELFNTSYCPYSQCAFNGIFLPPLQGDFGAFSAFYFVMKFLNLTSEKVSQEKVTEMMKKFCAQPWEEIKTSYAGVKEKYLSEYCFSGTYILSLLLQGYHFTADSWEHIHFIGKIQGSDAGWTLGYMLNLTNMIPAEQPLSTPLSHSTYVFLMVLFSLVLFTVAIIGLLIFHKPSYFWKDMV


Legend:
Chimera #9 = biological target: T1, Chimera #9; experiment: FACS on CHO cells; Chimera 2 with human D150 ([..])
Procedure: The chimeras were expressed in CHO cells and the ability of anti-human CD39 antibodies to bind the chimeras tested via FACS. In brief, cells were washed and blocked in FACS buffer (PBS/2% FBS) for 30 min on ice. […] After 2 washes, cells were resuspended in FACS buffer and analyzed on BD Fortessa. Data was processed with FlowJo. Positive binding was scored as “yes” and lack of binding was scored as “NO” and examples of FACS plots used to generate this table are in FIGS. 14.F and 14.G.

Chimera #10 = biological target: T2, Chimera #10; experiment: FACS on CHO cells; Chimera 2 with human E153 ([..])
Procedure: (§1) The chimeras were expressed in CHO cells and the ability of anti-human CD39 antibodies to bind the chimeras tested via FACS. In brief, cells were washed and blocked in FACS buffer (PBS/2% FBS) for 30 min on ice. […] After 2 washes, cells were resuspended in FACS buffer and analyzed on BD Fortessa. Data was processed with FlowJo.

Chimera #4 = biological target: T3, Chimera #4; experiment: FACS on CHO cells, 15 ug/ml; human M1-S274 + mouse GGV + human L278-V510
Procedure: as §1

| binding result (Chimera #9) | binding result (Chimera #10) | binding result (Chimera #4) | Binder |
| --- | --- | --- | --- |
| no binding (tested: 15 ug/ml) | no binding (tested: 15 ug/ml) | binds | 31901 (antibody, human IgG4 S228P, kappa, V domains shown) VH: QVQLVQSGAEVKKPGSSVKVSCKASGGTFSSLPISWVRQAPGQGLEWMGGIGFGTANYAQKFQGRVTITADESTSTAYMELSSLRSEDTAVYYCARGGAKYAGRYGMDVWGQGTTVTVSS VL: not shown |
| no binding (tested: 15 ug/ml) | no binding (tested: 15 ug/ml) | binds | 31905 (antibody, human IgG4 S228P, kappa, V domains shown) VH: QVQLVQSGAEVKKPGSSVKVSCKASGGTFPSNAISWVRQAPGQGLEWMGGIGFGTANYAQKFQGRVTITADESTSTAYMELSSLRSEDTAVYYCARGGAKYARTYGMDVWGQGTTVTVSS VL: not shown |
